This note sets out measurements from patent US20110112012A1 (UNIVERSITY OF GEORGIA STUDIES RESEARCH FOUNDATION, published 2011).

The assay has as its target T1, Cry4Ba toxin (Cry4BRA mutant, R203 replaced by A) of Bacillus thuringiensis israelensis (Bacillus thuringiensis israelensis, UniProt P05519 51-641).
T1 construct: domain: ~66 kDa toxin mosquitocidal fragment; also called labeled Cry4Ba
T1 sequence: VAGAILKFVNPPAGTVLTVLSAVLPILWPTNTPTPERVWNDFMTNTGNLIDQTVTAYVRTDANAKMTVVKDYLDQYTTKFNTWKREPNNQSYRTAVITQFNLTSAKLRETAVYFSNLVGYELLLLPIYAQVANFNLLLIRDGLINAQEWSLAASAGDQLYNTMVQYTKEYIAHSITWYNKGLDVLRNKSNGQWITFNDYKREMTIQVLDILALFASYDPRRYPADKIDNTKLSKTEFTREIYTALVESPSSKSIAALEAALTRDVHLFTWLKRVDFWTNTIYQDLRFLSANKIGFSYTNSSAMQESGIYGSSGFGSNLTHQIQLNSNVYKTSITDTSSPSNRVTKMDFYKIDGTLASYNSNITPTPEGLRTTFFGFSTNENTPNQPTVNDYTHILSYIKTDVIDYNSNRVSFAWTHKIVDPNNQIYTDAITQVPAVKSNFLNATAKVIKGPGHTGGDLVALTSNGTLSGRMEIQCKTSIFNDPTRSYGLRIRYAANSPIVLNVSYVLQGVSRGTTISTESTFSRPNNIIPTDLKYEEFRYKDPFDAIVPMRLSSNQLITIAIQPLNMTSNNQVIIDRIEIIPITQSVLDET
The assay can be described thus: microplate ELISA, Cry4Ba coated, biotinylated fragment titrated, one site saturation fit. In general terms: In an ELISA, binding on a coated surface is turned into a signal by an enzyme label.

B1: CR9-11 fragment of AgCad1, expressed in E. coli (peptide)
chain: GSPLPKFEAIDDDGGIYGDVTFSLTSTNDGEQDHEVFRVDKVDNKTGLLVLENSLAVQPFPKNYSITVIARDGGDRQSEAAIHVVFINMTGEPAFLEPTFDTDFTENEEGRDERRQLPFAEDPKNAGLPPGAETNVYYFIDKTYGNASHLFQLDRVSNVLQLAQLLDREEIPTPEIRIVATNNENSPPDTVLESSPSLLVVRIKVNDVNDNPPVFQQRLYAAGITTNDRVPKALFRVYAEDPDEDEIIRYELVNGTAVGENLQTDGLPFRLHPDSGELTLTSKVQPNQNGYYQLTLIAFDRDDTHNDTVPAKVYIVSESNRVTFVF
notes: Biotinylated for the microplate assay; also called AgCad CR9-11; AgCad-CR9-11
Broadly, the Kd is the concentration at which binding is half-saturated. Higher therefore signals a looser complex. On to B1, for which binding was put at a Kd of 173 nM.

B2: CR11-MPED peptide of AgCad1 (amino acids 1358G to 1569A), expressed in E. coli (peptide)
chain: GITTNDRVPKALFRVYAEDPDEDEIIRYELVNGTAVGENLQTDGLPFRLHPDSGELTLTSKVQPNQNGYYQLTLIAFDRDDTHNDTVPAKVYIVSESNRVTFVFLNSVEEIDQPDVRKFLAQELTGAYEMECNIDDIDQTTASDGRQAGGSSSALTDVRTHFIQDNQAVEASRIQQRSSNRTFVTVLKTTLRTRGLSLQDVPPLATEALTEA
notes: Biotinylated with sulfo-NHS-PC-biotin for the microplate assay; also called AgCad CR11-MPED; AgCad-CR11-MPED
With B2, the Kd was 393 nM.
